Experimental findings from patent US20240010722A1 are described below.

Values joined by “and” are separate entries in the source; they are usually repeats but may differ in a detail not shown here. Equal entries are not always repeated.

B1: MIAB198 (antibody, V domains shown)
VH: EVQLLESGGGLVQPGGSLRLSCAASGFTFSDFWMHWVRQAPGKGLEWISYISGDSGYTNYADSVKGRFTISRDNSKNTLYLQMNSLRAEDTAVYYCARDRPYYYIMDVWGKGTTVTVSS
VL: DIQMTQSPSSLSASVGDRVTITCRASQSVSRSLAWYQQKPGKAPKLLIYAASSLQSGVPSRFSGSGSGTDFTLTISSLQPEDFATYYCQQYKSYPVTFGQGTKVEIK
B2: MIAB154 (antibody, V domains shown)
VH: EVQLLESGGGLVQPGGSLRLSCAASGFTFSDFWMHWVRQAPGKGLEWISYISGDSGYTNYADSVKGRFTISRDNSKNTLYLQMNSLRAEDTAVYYCARDRPYYYYMDVWGKGTTVTVSS
VL: DIQMTQSPSSLSASVGDRVTITCRASQSVSRYLNWYQQKPGKAPKLLIYAASSLQSGVPSRFSGSGSGTDFTLTISSLQPEDFATYYCQQYKSYPVTFGQGTKVEIK
B3: MIAB167 (antibody, V domains shown)
VH: EVQLLESGGGLVQPGGSLRLSCAASGFTFSDFWMHWVRQAPGKGLEWISYISGDSGYTNYADSVKGRFTISRDNSKNTLYLQMNSLRAEDTAVYYCARDRPYYYYMDVWGKGTTVTVSS
VL: DIQMTQSPSSLSASVGDRVTITCRASQSVSRSLKWYQQKPGKAPKLLIYAASSLQSGVPSRFSGSGSGTDFTLTISSLQPEDFATYYCQQYKSYPVTFGQGTKVEIK
B4: MIAB152 (antibody, V domains shown)
VH: EVQLLESGGGLVQPGGSLRLSCAASGFTFSDFWMHWVRQAPGKGLEWISYISGDSGYTNYADSVKGRFTISRDNSKNTLYLQMNSLRAEDTAVYYCARDRPYYYYMDVWGKGTTVTVSS
VL: DIQMTQSPSSLSASVGDRVTITCRASQSVSSYLAWYQQKPGKAPKLLIYAASSLQSGVPSRFSGSGSGTDFTLTISSLQPEDFATYYCQQYKSYPVTFGQGTKVEIK
B5: MIAB160 (antibody, V domains shown)
VH: EVQLLESGGGLVQPGGSLRLSCAASGFTFSDFWMHWVRQAPGKGLEWISYISGDSGYTQYADSVKGRFTISRDNSKNTLYLQMNSLRAEDTAVYYCARDRPYYYYMDVWGKGTTVTVSS
VL: DIQMTQSPSSLSASVGDRVTITCRASQSVSRSLAWYQQKPGKAPKLLIYAASSLQSGVPSRFSGSGSGTDFTLTISSLQPEDFATYYCQQYKSYPVTFGQGTKVEIK
B6: MIAB165 (antibody, V domains shown)
VH: EVQLLESGGGLVQPGGSLRLSCAASGFTFSDFWMHWVRQAPGKGLEWISYISGDSGYTNYADSVKGRFTISRDNSKNTLYLQMNSLRAEDTAVYYCARDRPYYYYMDVWGKGTTVTVSS
VL: DIQMTQSPSSLSASVGDRVTITCRASQSVSRSLSWYQQKPGKAPKLLIYAASSLQSGVPSRFSGSGSGTDFTLTISSLQPEDFATYYCQQYKSYPVTFGQGTKVEIK
B7: MIAB131 (antibody, V domains shown)
VH: EVQLLESGGGLVQPGGSLRLSCAASGFTFSDFWMHWVRQAPGKGLEWISYISGDSGYTNYADSVKGRFTISRDNSKNTLYLQMNSLRAEDTAVYYCARDRPYYYGMDVWGKGTTVTVSS
VL: DIQMTQSPSSLSASVGDRVTITCRASQSVSRSLAWYQQKPGKAPKLLIYAASSLQSGVPSRFSGSGSGTDFTLTISSLQPEDFATYYCQQYKSYPVTFGQGTKVEIK
B8: MIAB156 (antibody, V domains shown)
VH: EVQLLESGGGLVQPGGSLRLSCAASGFTFSDFWMHWVRQAPGKGLEWISYISGDSGYTNYADSVKGRFTISRDNSKNTLYLQMNSLRAEDTAVYYCARDRPYYYYMDVWGKGTTVTVSS
VL: DIQMTQSPSSLSASVGDRVTITCRASQSISRYLNWYQQKPGKAPKLLIYAASSLQSGVPSRFSGSGSGTDFTLTISSLQPEDFATYYCQQYKSYPVTFGQGTKVEIK
B9: MIAB158 (antibody, V domains shown)
VH: EVQLLESGGGLVQPGGSLRLSCAASGFTFSDFWMHWVRQAPGKGLEWISYISGDSGYTNYADSVKGRFTISRDNSKNTLYLQMNSLRAEDTAVYYCARDRPYYYYMDVWGKGTTVTVSS
VL: DIQMTQSPSSLSASVGDRVTITCRASQSVSSYLNWYQQKPGKAPKLLIYAASSLQSGVPSRFSGSGSGTDFTLTISSLQPEDFATYYCQQYKSYPVTFGQGTKVEIK
B10: MIAB163 (antibody, V domains shown)
VH: EVQLLESGGGLVQPGGSLRLSCAASGFTFSDFWMHWVRQAPGKGLEWISYISGDSGYTNYADSVKGRFTISRDNSKNTLYLQMNSLRAEDTAVYYCARDRPYYYYMDVWGKGTTVTVSS
VL: DIQMTQSPSSLSASVGDRVTITCRASQSVSRSLDWYQQKPGKAPKLLIYAASSLQSGVPSRFSGSGSGTDFTLTISSLQPEDFATYYCQQYKSYPVTFGQGTKVEIK
B11: MIAB166 (antibody, V domains shown)
VH: EVQLLESGGGLVQPGGSLRLSCAASGFTFSDFWMHWVRQAPGKGLEWISYISGDSGYTNYADSVKGRFTISRDNSKNTLYLQMNSLRAEDTAVYYCARDRPYYYYMDVWGKGTTVTVSS
VL: DIQMTQSPSSLSASVGDRVTITCRASQSVSRSLEWYQQKPGKAPKLLIYAASSLQSGVPSRFSGSGSGTDFTLTISSLQPEDFATYYCQQYKSYPVTFGQGTKVEIK
B12: MIAB159 (antibody, V domains shown)
VH: EVQLLESGGGLVQPGGSLRLSCAASGFTFSDFWMHWVRQAPGKGLEWISYISGESGYTNYADSVKGRFTISRDNSKNTLYLQMNSLRAEDTAVYYCARDRPYYYYMDVWGKGTTVTVSS
VL: DIQMTQSPSSLSASVGDRVTITCRASQSVSRSLAWYQQKPGKAPKLLIYAASSLQSGVPSRFSGSGSGTDFTLTISSLQPEDFATYYCQQYKSYPVTFGQGTKVEIK
B13: MIAB130 (antibody, V domains shown)
VH: EVQLLESGGGLVQPGGSLRLSCAASGFTFSDFWMHWVRQAPGKGLEWISYISGDSGYTNYADSVKGRFTISRDNSKNTLYLQMNSLRAEDTAVYYCARDRPYYYQMDVWGKGTTVTVSS
VL: DIQMTQSPSSLSASVGDRVTITCRASQSVSRSLAWYQQKPGKAPKLLIYAASSLQSGVPSRFSGSGSGTDFTLTISSLQPEDFATYYCQQYKSYPVTFGQGTKVEIK
B14: MIAB162 (antibody, V domains shown)
VH: EVQLLESGGGLVQPGGSLRLSCAASGFTFSDFWMHWVRQAPGKGLEWISYISGDSGYTNYADSVKGRFTISRDNSKNTLYLQMNSLRAEDTAVYYCARDRPYYYYMDVWGKGTTVTVSS
VL: DIQMTQSPSSLSASVGDRVTITCRASQSVSRSLGWYQQKPGKAPKLLIYAASSLQSGVPSRFSGSGSGTDFTLTISSLQPEDFATYYCQQYKSYPVTFGQGTKVEIK
B15: MIAB155 (antibody, V domains shown)
VH: EVQLLESGGGLVQPGGSLRLSCAASGFTFSDFWMHWVRQAPGKGLEWISYISGDSGYTNYADSVKGRFTISRDNSKNTLYLQMNSLRAEDTAVYYCARDRPYYYYMDVWGKGTTVTVSS
VL: DIQMTQSPSSLSASVGDRVTITCRASQSISSSLNWYQQKPGKAPKLLIYAASSLQSGVPSRFSGSGSGTDFTLTISSLQPEDFATYYCQQYKSYPVTFGQGTKVEIK
B16: MIAB161 (antibody, V domains shown)
VH: EVQLLESGGGLVQPGGSLRLSCAASGFTFSDFWMHWVRQAPGKGLEWISYISGDSGYTNYADSVKGRFTISRDQSKNTLYLQMNSLRAEDTAVYYCARDRPYYYYMDVWGKGTTVTVSS
VL: DIQMTQSPSSLSASVGDRVTITCRASQSVSRSLAWYQQKPGKAPKLLIYAASSLQSGVPSRFSGSGSGTDFTLTISSLQPEDFATYYCQQYKSYPVTFGQGTKVEIK
B17: MIAB129 (antibody, V domains shown)
VH: EVQLLESGGGLVQPGGSLRLSCAASGFTFSDFWMHWVRQAPGKGLEWISYISGDSGYTNYADSVKGRFTISRDNSKNTLYLQMNSLRAEDTAVYYCARDRPGYYYMDVWGKGTTVTVSS
VL: DIQMTQSPSSLSASVGDRVTITCRASQSVSRSLAWYQQKPGKAPKLLIYAASSLQSGVPSRFSGSGSGTDFTLTISSLQPEDFATYYCQQYKSYPVTFGQGTKVEIK
B18: MIAB128 (antibody, V domains shown)
VH: EVQLLESGGGLVQPGGSLRLSCAASGFTFSDFWMHWVRQAPGKGLEWISYISGDSGYTNYADSVKGRFTISRDNSKNTLYLQMNSLRAEDTAVYYCARDRPNYYYMDVWGKGTTVTVSS
VL: DIQMTQSPSSLSASVGDRVTITCRASQSVSRSLAWYQQKPGKAPKLLIYAASSLQSGVPSRFSGSGSGTDFTLTISSLQPEDFATYYCQQYKSYPVTFGQGTKVEIK
B19: MIAB164 (antibody, V domains shown)
VH: EVQLLESGGGLVQPGGSLRLSCAASGFTFSDFWMHWVRQAPGKGLEWISYISGDSGYTNYADSVKGRFTISRDNSKNTLYLQMNSLRAEDTAVYYCARDRPYYYYMDVWGKGTTVTVSS
VL: DIQMTQSPSSLSASVGDRVTITCRASQSVSRSLTWYQQKPGKAPKLLIYAASSLQSGVPSRFSGSGSGTDFTLTISSLQPEDFATYYCQQYKSYPVTFGQGTKVEIK
B20: MIAB157 (antibody, V domains shown)
VH: EVQLLESGGGLVQPGGSLRLSCAASGFTFSDFWMHWVRQAPGKGLEWISYISGDSGYTNYADSVKGRFTISRDNSKNTLYLQMNSLRAEDTAVYYCARDRPYYYYMDVWGKGTTVTVSS
VL: DIQMTQSPSSLSASVGDRVTITCRASQSISSYLAWYQQKPGKAPKLLIYAASSLQSGVPSRFSGSGSGTDFTLTISSLQPEDFATYYCQQYKSYPVTFGQGTKVEIK
B21: MIAB150 (antibody, V domains shown)
VH: EVQLLESGGGLVQPGGSLRLSCAASGFTFSDFWMHWVRQAPGKGLEWISYISGDSGYTNYADSVKGRFTISRDNSKNTLYLQMNSLRAEDTAVYYCARDRPYYYYMDVWGKGTTVTVSS
VL: DIQMTQSPSSLSASVGDRVTITCRASQSISRYLAWYQQKPGKAPKLLIYAASSLQSGVPSRFSGSGSGTDFTLTISSLQPEDFATYYCQQYKSYPVTFGQGTKVEIK

This experiment deals with Insulin. The experiment can be described thus: polyreactivity ELISA on insulin coat, 100 nM. Background: In an ELISA, binding on a coated surface is turned into a signal by an enzyme label.
Chain of Insulin (P01308 25-54, chain 1 of 2): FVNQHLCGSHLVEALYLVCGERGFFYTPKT
Chain of Insulin (P01308 90-110, chain 2 of 2): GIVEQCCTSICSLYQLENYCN
B1: the Insulin polyreactivity score was 3.19 and 3.63. As for B2, the Insulin polyreactivity score worked out at 61.9. For the molecule B3, the Insulin polyreactivity score was 29.6. For the molecule B4, the Insulin polyreactivity score was determined as 2.83. Then B5, with 17.8; and B6, with 9.53. In turn, B7 had an Insulin polyreactivity score of 8. Turning to B8, the Insulin polyreactivity score worked out at 45.2.

For B9, the Insulin polyreactivity score came to 2.67. Molecule B10 gave an Insulin polyreactivity score of 18.5. The molecule B11 registered an Insulin polyreactivity score of 7.89. B12 returned an Insulin polyreactivity score of 4.66. As to B13, the Insulin polyreactivity score is 3.26. On to B14, for which the Insulin polyreactivity score was 5.31. Consider B15, for which the Insulin polyreactivity score was 1.99. B16 registered an Insulin polyreactivity score of 5. In the case of B17, the Insulin polyreactivity score is 2.43.

For B18, the Insulin polyreactivity score worked out at 2.62.

Molecule B19 registered an Insulin polyreactivity score of 7.07.

For B20, the Insulin polyreactivity score is 3.99. Then B21, with 3.74.
